Data set [1] concerns the target T1, Vts1-SNAP (full length) (UniProt Q08831 1-523).
T1 sequence: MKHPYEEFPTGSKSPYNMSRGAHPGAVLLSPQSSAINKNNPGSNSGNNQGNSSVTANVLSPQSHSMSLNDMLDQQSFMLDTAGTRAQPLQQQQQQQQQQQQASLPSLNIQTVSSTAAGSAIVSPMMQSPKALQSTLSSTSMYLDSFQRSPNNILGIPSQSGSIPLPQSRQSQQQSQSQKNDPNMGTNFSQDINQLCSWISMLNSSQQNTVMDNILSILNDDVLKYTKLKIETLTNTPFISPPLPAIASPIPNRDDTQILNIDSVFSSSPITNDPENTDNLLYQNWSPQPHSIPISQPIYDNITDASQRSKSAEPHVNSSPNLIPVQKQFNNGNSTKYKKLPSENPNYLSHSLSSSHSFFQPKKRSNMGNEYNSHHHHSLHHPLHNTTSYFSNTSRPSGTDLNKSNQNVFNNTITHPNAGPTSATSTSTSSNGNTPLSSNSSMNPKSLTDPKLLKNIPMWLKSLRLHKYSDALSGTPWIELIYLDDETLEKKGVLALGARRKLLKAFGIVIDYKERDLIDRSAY
Description: fluorescence microscopy co-localization.

The data set “SEC” concerns the molecule itself. Description: SEC.
The data set “native gel or EMSA” concerns the molecule itself. The data set is described as follows: native gel or EMSA.
Data set [2] addresses T1, Vts1-SNAP (full length). Description: fluorescence microscopy co-localization. This is another data set of the same source.

Experimental findings from article PMC6980676 (Molecular cell, 2019) are described below.

Consider UAAUAAUCAGCUGGCCUGAUUAGUC (structured_RNA) [SRE+ RNA], for which the binding result with Vts1-SNAP (full length) [1] is given as “binds”.

B1: full-length Vts1 with a C-terminal SNAP tag (natural protein, S. cerevisiae, UniProt Q08831 1-523, looked up)
chain: T1 sequence
For B1, the “stoichiometry N” value in “SEC” came out at 6.

B2: SNAP^549 labeled full-length Vts1 (natural protein, S. cerevisiae, UniProt Q08831 1-523, looked up)
chain: T1 sequence
modifications: SNAP-Surface 549 dye on the SNAP tag
As for B2, the binding result in “native gel or EMSA” is given as “binds”.

Regarding UAAUAAUCAGGUCGCCUGAUUAGUC (structured_RNA) [SRE- RNA (permuted SRE)], the binding signal with Vts1-SNAP (full length) [2] is > 5 fold lower co-localized signal than SRE+.
